Patent US10023615B2, “Efficient transport into white blood cells” (priority 2008, dated 2018)
Ends that are not written are not given here.

Assays:
liver, Kupffer cells = assay: Immunostaining against XG-102 in the liver after i.v. injection; assay type: in vivo, rat; settings: 1 mg/kg i.v., 24 hours
From the text: Revelation was done using DAB substrate.

[1] = Stability of XG-102 stock solution and diluted formulations; assay type: physicochemical
From the text: a) Materials and Methods • i) Animals • A total of twenty (20) male db/db mice (8 weeks old) were obtained from Charles River (Germany). Upon arrival, animals were group housed (n=6-7/group) and offered regular rodent chow (Altromin standard #1324 chow; C. Petersen, Ringsted, Denmark) and water ad libitum unless otherwise stated. • The mice were housed under a 12:12 L/D cycle (lights on at 4:00 and lights off at 16:00) and in temperature and humidity controlled rooms. • ii) Groups and Randomization • On day −4, mice were randomized according to blood glucose level (fasted; blood glucose measured on Biosen S line analyzer (EKF diagnostic, Germany) to participate in one of the following drug treatment groups (n=6): • 1) Vehicle control, S.C. (physiological saline) • 2) XG-102 (SEQ ID NO: 233); 1 mg/kg; s.c. • 3) XG-102 (SEQ ID NO: 233); 10 mg/kg; s.c • All doses listed were calculated for the free-base. Drug purity: 95.28%, peptide content: 78.0%. All compounds were administered sub-cutaneously (s.c.) in a volume of 3 ml/kg. The formulation instructions for vehicle control and XG-102 (SEQ ID NO: 233) were as follows: • First, XG-102 (SEQ ID NO: 233) was dissolved in the vehicle. The formulations (concentrations of 0.33 and 3.3 mg/ml, corresponding to the doses of 1 and 10 mg/kg, respectively) were prepared according to the procedure detailed below. Concentrations were calculated and expressed taking into account test items purity and peptide content (multiplier coefficient was 1.346). • Preparation of a stock solution: the freeze-dried test compound XG-102 (SEQ ID NO: 233) is thawed for one hour minimum and prepared as a stock solution in the vehicle at 1 mM (corresponding to 3.823 mg/mL). Aliquots are prepared for each treatment day and stored at approximately −80° C. Dilutions of this stock solution to the required concentrations are performed on each treatment day; • Storage of the stock solution: at approximately −80° C.; • Storage of the diluted preparations: at room temperature for 24 hours maximum. • Prior to solubilisation, the powder was stored at −20° C. […]

[2] = system: leucocytes (cd11b positive cells) in inflamed hind paw; assay: Immunohistochemistry and CD11b staining on paw from CFA-induced inflammation (4 h); assay type: in vivo, C57/Bl6 mice; settings: 10 μg/kg i.v. one hour prior to CFA; 4 h after CFA
Description: FIG. 19A, FIG. 19B, and FIG. 19C: Immunohistochemistry staining on paw from CFA-induced inflammation (4 h). Upper panels represent the Hematoxylin and Eosin (H&E) staining of hindpays. From left to right: a saline-treated animal which was not treated with CFA (Complete Freund's Adjuvant), a saline-treated animal which received CFA and a XG-102-(SEQ ID NO: 233) treated animal which also received a CFA injection. After CFA treatment, muscular and epithelial layers appear to be less organized due to edema. The presence of XG-102 (SEQ ID NO:233) positive cells was detected only in animal treated with XG-102 (upper right panel). […] 19A: Magnification ×20; 19B: Magnification ×40; 19C: Magnification ×100.
FIG. 20A represents the hind paw section of a CFA treated animal stained with three different dyes. The four upper panels represent the same portion at high magnification of a distal region. Distribution of the leucocyte marker (mainly granulocytes, macrophages and monocytes) cd11b (first from left) and XG-102 (SEQ ID NO: 233, second from left) as well as the Dapi nuclear stain (3rd from left) are indicated. The upper right panel represents the merge image of cd11b and XG-102 positive stain. […]

dqsrpvqpflnIttprkprpprrrqrrkkrg (DQSRPVQPFLNLTTPRKPRPPRRRQRRKKRG; not fully specified (some residues); printed as dqsrpvqpflnIttprkprpprrrqrrkkrg) [XG-102]
accumulation in liver (liver, Kupffer cells): pronounced accumulation of XG-102 in the liver, and especially, in the Kupffer cells
stability of the stock solution ([1]; 1 mM in vehicle, approximately −80° C.): 3 months
storage of unused diluted material ([1]; 4-8° C.): up to 7 days
stability of the diluted formulations for animal dosing ([1]; room temperature): 24 h
co-localization with cd11b positive leucocytes [2]: co-localizes with a certain leucocyte population
presence in leucocytes of inflamed paw (HRP staining) [2]: presence of XG-102 in infiltrating leucocytes
